According to patent US6852319 (Scripps Research, dated 2005):

T1: purified 185 kD streptococcal antigen (SA) I/II cell surface adhesion molecule (Streptococcus mutans, UniProt P23504 39-1532)
T1 construct: also called purified SA; streptococcal antigen I/II
T1 sequence (looked up): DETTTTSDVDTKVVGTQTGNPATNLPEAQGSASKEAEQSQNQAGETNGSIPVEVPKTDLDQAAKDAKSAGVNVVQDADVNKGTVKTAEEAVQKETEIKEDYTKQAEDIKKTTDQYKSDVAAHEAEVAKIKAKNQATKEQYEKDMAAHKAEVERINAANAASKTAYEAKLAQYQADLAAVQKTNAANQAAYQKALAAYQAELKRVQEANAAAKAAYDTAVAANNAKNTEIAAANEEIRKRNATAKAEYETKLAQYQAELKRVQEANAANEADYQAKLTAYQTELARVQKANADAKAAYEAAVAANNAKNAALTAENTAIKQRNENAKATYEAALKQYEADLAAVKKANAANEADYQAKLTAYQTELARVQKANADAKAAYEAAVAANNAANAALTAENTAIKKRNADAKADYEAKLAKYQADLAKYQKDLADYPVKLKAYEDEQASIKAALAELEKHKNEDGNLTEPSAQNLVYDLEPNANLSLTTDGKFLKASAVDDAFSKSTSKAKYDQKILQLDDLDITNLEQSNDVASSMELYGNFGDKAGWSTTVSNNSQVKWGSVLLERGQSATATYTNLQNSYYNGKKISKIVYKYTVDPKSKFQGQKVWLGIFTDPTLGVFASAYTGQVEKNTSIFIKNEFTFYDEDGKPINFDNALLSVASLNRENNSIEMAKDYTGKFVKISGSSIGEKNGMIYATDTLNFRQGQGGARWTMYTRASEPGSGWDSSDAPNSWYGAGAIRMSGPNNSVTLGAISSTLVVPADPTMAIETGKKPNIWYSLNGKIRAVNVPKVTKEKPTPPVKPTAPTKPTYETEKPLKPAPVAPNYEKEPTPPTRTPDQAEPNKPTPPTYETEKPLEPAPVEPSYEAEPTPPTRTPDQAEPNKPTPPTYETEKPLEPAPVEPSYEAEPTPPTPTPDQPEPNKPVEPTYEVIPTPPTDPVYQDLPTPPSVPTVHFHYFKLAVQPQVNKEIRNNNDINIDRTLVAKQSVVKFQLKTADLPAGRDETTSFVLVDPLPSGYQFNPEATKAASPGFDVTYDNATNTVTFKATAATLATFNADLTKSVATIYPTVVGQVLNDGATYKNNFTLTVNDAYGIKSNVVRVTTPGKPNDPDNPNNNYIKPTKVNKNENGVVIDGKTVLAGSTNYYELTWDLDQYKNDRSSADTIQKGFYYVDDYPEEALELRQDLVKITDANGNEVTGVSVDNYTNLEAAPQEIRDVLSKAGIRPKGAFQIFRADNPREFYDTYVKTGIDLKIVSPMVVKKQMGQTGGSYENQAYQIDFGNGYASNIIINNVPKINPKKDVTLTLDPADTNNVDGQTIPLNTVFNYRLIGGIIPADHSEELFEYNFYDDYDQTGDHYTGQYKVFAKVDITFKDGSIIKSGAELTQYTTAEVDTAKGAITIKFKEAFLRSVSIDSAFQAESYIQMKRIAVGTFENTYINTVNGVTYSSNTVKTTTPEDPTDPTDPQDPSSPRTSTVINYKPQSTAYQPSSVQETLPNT

B1: rabbit secretory component (SC) construct expressed in tobacco (receptor)
chain: QSSLLGPSSIFGPGEVNVLEGDSVSITCYYPTTSVTRHSRKFWCREEESGRCVTLASTGYTSQEYSGRGKLTDFPDKGEFVVTVDQLTQNDSGSYKCGVGVNGRGLDFGVNVLVSQKPEPDDVVYKQYESYTVTITCPFTYATRQLKKSFYKVEDGELVLIIDSSSKEAKDPRYKGRITLQIQSTTAKEFTVTIKHLQLNDAGQYVCQSGSDPTAEEQNVDLRLLTPGLLYGNLGGSVTFECALDSEDANAVASLRQVRGGNVVIDSQGTIDPAFEGRILFTKAENGHFSVVIAGLRKEDTGNYLCGVQSNGQSGDGPTQLRQLFVNEEIDVSRSPPVLKGFPGGSVTIRCPYNPKRSDSHLQLYLWEGSQTRHLLVDSGEGLVQKDYTGRLALFEEPGNGTFSVVLNQLTAEDEGFYWCVSDDDESLTTSVKLQIVDGEPSPTIDKFTAVQGEPVEITCHFPCKYFSSEKYWCKWNDHGCEDLPTKLSSSGDLVKCNNNLVLTLTLDSVSEDDEGWYWCGAKDGHEFEEVAAVRVELTEPAKVAVEPAKVPVDPAKAAPAPAEEKAKARCPVPRRRQWYPLSRKLRTSCPEPRLLAEEVAVQSAE
notes: also called rabbit SC
B2: mouse J chain expressed in tobacco (other)
chain: GDDEATILADNKCMCTRVTSKIIPSTEDPNEDIVERNIRIVVPLNNRENISDPTSPLRRNFVYHLSDVCKKCDPVEVELEDQVVTATQSNICNEDDGVPETCYMYDRNKCYTTMVPLRYHGETKMVQAALTPDSCYPD
notes: also called joining chain

Legend:
[1] = molecular target: T1, purified 185 kD streptococcal antigen …; experiment: ELISA of plant leaf extract on purified SA I/II coated plates
[2] = molecular target: dIgA-G, plant-expressed dimeric IgA-G with mouse J chain (murine; mouse) (UniProt P01878); experiment: initial estimate in extracts of SIgA-G plants (data not shown)
dIgA-G, plant-expressed dimeric IgA-G with mouse J chain (murine; mouse), sequence (P01878 116-344, form in doubt): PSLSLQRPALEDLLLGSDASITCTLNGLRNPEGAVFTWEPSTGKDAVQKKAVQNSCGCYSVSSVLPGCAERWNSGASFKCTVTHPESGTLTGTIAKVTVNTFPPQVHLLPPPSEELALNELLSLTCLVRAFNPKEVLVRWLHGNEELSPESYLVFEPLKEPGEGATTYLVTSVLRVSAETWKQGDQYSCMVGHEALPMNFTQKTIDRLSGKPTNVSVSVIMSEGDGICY

Binder	binding result [1]	percent of SC associated with dimeric IgA-G [2] [%]
B1	no binding	50
B2	no binding	–
